Target: ParA (pMF1.22) co-expressed with ParC from pET15b (Myxococcus fulvus 124B02 (plasmid pMF1))
Experiment: SDS-PAGE band identified by mass spectrometry

ParC (pMF1.21) co-expressed in front of ParA from pET15b (natural protein)
stoichiometry N (ParC:ParA molar ratio): 1
